Assay results taken from IntAct's records for PubMed 40088780.

Target: tor1a_human TOR1A (UniProt O14656)

In the case of “Torsin-1A-interacting protein 2 (Homo sapiens), Q8NFQ8 R412G”, the “effect of a mutation on the interaction” value is reported as “decreasing interaction strength”.
